Laboratory results from publication PMC5105191.
Where two headings read alike, the source gives them in different places. Each block holds one molecule with its values, some of them ahead of it.

What was measured:
[1] = molecular target: FITC–PHC2_(32–61) (human); assay: fluorescence polarisation; 20 nM fluorescein-labelled PHC2 32-61 titrated with BMI1 UBL variants or MEL18 UBL; 50 mM bis tris pH 7.5, 50 mM NaCl, 1 mM TCEP, 0.01% BSA, 0.25% tween-20; 1 h incubation
[2] = molecular target: BMI1_(121–235), BMI1 UBL domain, wild type (UniProt P35226); assay: ITC; VP-ITC, 25 °C, 50 mM phosphate pH 6.5, 50 mM NaCl, 1 mM TCEP; BMI1 121-235 in the cell (22 or 9 μM), titrated with trx-PHC2 1-79 (164 μM) or PHC2 33-56 (100 μM)
[3] = molecular target: FITC–PHC2_(32–61) (human); assay: fluorescence polarisation; 20 nM fluorescein-labelled PHC2 32-61 titrated with BMI1 UBL variants or MEL18 UBL; 50 mM bis tris pH 7.5, 50 mM NaCl, 1 mM TCEP, 0.01% BSA, 0.25% tween-20; 1 h incubation; remark: listed apart in the source

Kd [1]: 5900 nM
Molecule: BMI1 UBL domain R165E (from UniProt P35226 121-235) (domain or fragment)

Kd [1]: 17000 nM
Molecule: BMI1 UBL domain M170E (from UniProt P35226 121-235) (domain or fragment)

Kd [2]: 398 nM
stoichiometry N [2]: 1
Molecule: trx-PHC2_(1–79) (domain or fragment)

Kd [1]: 215 nM
Molecule: BMI1_(121–235), BMI1 UBL domain, wild type (from UniProt P35226 121-235) (domain or fragment)

Kd [1]: 1040 nM
Molecule: BMI1 UBL domain I212E (from UniProt P35226 121-235) (domain or fragment)

Kd [1]: > 50000 nM
Molecule: BMI1 UBL domain R165E/H174E double mutant (from UniProt P35226 121-235) (domain or fragment)

Kd [1]: 20100 nM
Molecule: BMI1 UBL domain H174E (from UniProt P35226 121-235) (domain or fragment)

Kd [2]: 413 nM
Molecule: PHC2_(33–56) peptide

Kd [1]: 409 nM
Molecule: BMI1 UBL domain F189Q (from UniProt P35226 121-235) (domain or fragment)

Kd [3]: 812 nM
B1: MEL18_(121-237) fragment, MEL18 UBL domain (domain or fragment)
chain: EKGALSDDEIVSLSIEFYEGARDRDEKKGPLENGDGDKEKTGVRFLRCPAAMTVMHLAKFLRNKMDVPSKYKVEVLYEDEPLKEYYTLMDIAYIYPWRRNGPLPLKYRVQPACKRLT
